{"source": "patent US20020164696A1", "about": "(CHR HANSEN A S, published 2002)", "key": {"[1]": {"molecular_target": "T1, synthetic peptide corresponding to bovine kappa-CN (bovine)", "T1 construct": "Synthetic substrate peptide, free N- and C-terminus as printed; also called Bt kappa-CN; bovine kappa-CN peptide", "T1 peptide": "HPHPHLS[Phe(4-NO2)]MAI", "assay": "cleavage kinetics of the synthetic peptide at pH 5.6, Lineweaver-Burke plots; binding inferred from KM", "protocol": "(§1) Two synthetic peptidases, which correspond to the chymosin sensitive regions of camel- and bovine κ-casein (CN), were proteolytically cleaved with bovine and camel chymosin, respectively. KM and kcat were determined at pH 5.6. Additionally, temperature and pH optima of these reactions were measured. The two following synthetic peptides were used in this study:\n(§2) The measurement of samples was repeated 3 to 6 times, the Michaelis-Menten and the turnover values were determined from Lineweaver-Burke plots with weighted linear regression of data."}, "[2]": {"molecular_target": "T2, synthetic peptide corresponding to camel kappa-CN (camel)", "T2 construct": "Synthetic substrate peptide, free N- and C-terminus as printed; also called Cd kappa-CN; Cd kappa-CN peptide", "T2 peptide": "RPRPRPS[Phe(4-NO2)]IAI", "assay": "cleavage kinetics of the synthetic peptide at pH 5.6, Lineweaver-Burke plots; binding inferred from KM", "protocol": "as §1, §2"}}, "note": "Square brackets hold non-standard residues; d marks the D form. Ends that are not written are not given here. Phe(4-NO2) = N[C@@H](Cc1ccc([N+](=O)[O-])cc1)C(=O)O"}
{"binder": "recombinant Camelus dromedarius chymosin (enzyme, UniProt Q9GK11 59-381, looked up, mature; also called Cd chymosin; camel chymosin) GKVAREPLTSYLDSQYFGKIYIGTPPQEFTVVFDTGSSDLWVPSIYCKSNVCKNHHRFDPRKSSTFRNLGKPLSIHYGTGSMEGFLGYDTVTVSNIVDPNQTVGLSTEQPGEVFTYSEFDGILGLAYPSLASEYSVPVFDNMMDRHLVARDLFSVYMDRNGQGSMLTLGAIDPSYYTGSLHWVPVTLQQYWQFTVDSVTINGVAVACVGGCQAILDTGTSVLFGPSSDILKIQMAIGATENRYGEFDVNCGNLRSMPTVVFEINGRDYPLSPSAYTSKDQGFCTSGFQGDNNSELWILGDVFIREYYSVFDRANNRVGLAKAI", "values": [{"measurement": "substrate binding relative to bovine chymosin", "setting": "[1]", "value": "~2", "unit": "fold"}, {"measurement": "substrate binding relative to bovine chymosin", "setting": "[2]", "value": "~2", "unit": "fold"}]}
